Source: US20240116985A1 (published 2024)
Blank lines part the entries; values can stand above or below the binder they belong to. Starred links: 1 amine or outer side, 2 acyl side, 3 side chain; linkers in the order of their positions; H or OH if unused. Positions of bridges follow the written chain, without caps; N, C: chain ends. Non-standard residues stand in square brackets, D forms with d. Primed or numbered codes have the meaning given here. *: point of attachment. PyrS2″ = (S)-3-amino-1-((pent-4-en-1-yloxy)carbonyl)pyrrolidine-3-carboxylic acid (stapling residue), C=CCCCOC(=O)N1CC[C@@](N[*:1])(C(=O)[*:2])C1; B5(17) = 2,2-bis(4-pentenyl)glycine = 2-amino-2-(pent-4-en-1-yl)hept-6-enoic acid, stitching residue, C=CCCCC(CCCC=C)(N[*:1])C(=O)[*:2]; B5(4) = 2,2-bis(4-pentenyl)glycine = 2-amino-2-(pent-4-en-1-yl)hept-6-enoic acid (stitching residue), C=CCCCC(CCCC=C)(N[*:1])C(=O)[*:2]; B5(5) = 2,2-bis(4-pentenyl)glycine, 2-amino-2-(pent-4-en-1-yl)hept-6-enoic acid (stitching residue), C=CCCCC(CCCC=C)(N[*:1])C(=O)[*:2]; (Me2NPrPip)GlnR″ = Glu side chain amide with 4-(3-(dimethylamino)propyl)piperazine, CN(C)CCCN1CCN(C(=O)CC[C@H](N[*:1])C(=O)[*:2])CC1; (EtSO2Ppz)GlnR = Glu side chain amide with 4-(ethylsulfonyl)piperazine, CCS(=O)(=O)N1CCN(C(=O)CC[C@H](N[*:1])C(=O)[*:2])CC1; B5(12) = 2-amino-2-(pent-4-en-1-yl)hept-6-enoic acid (two olefin side chains), C=CCCCC(CCCC=C)(N[*:1])C(=O)[*:2]; Phe(3-COOH) = N[C@@H](Cc1cccc(C(=O)O)c1)C(=O)O; 2F3MeF = Cc1cccc(C[C@H](N[*:1])C(=O)[*:2])c1F; Phe(2-Cl) = N[C@@H](Cc1ccccc1Cl)C(=O)O; Phe(3-F) = N[C@@H](Cc1cccc(F)c1)C(=O)O; Phe(4-F) = N[C@@H](Cc1ccc(F)cc1)C(=O)O; Bta = N[C@@H](Cc1csc2ccccc12)C(=O)O; Lys(iPr) = CC(C)NCCCC[C@H](N)C(=O)O; αAllylPro = C=CC[C@@]1(C(=O)O)CCCN1; tBuAla = CC(C)(C)C[C@H](N)C(=O)O; 2Pal = N[C@@H](Cc1ccccn1)C(=O)O; 3Thi = N[C@@H](Cc1ccsc1)C(=O)O; S8 = C=CCCCCCC[C@](C)(N)C(=O)O; PyrS2(4) = not defined here; Prolinol = OC[C@@H]1CCCN1*

Assays:
Bcat-Halo = molecular target: T1, Bcat-Halo (UniProt P35222 1-781); assay: cell-based or functional assay
T1 sequence (looked up): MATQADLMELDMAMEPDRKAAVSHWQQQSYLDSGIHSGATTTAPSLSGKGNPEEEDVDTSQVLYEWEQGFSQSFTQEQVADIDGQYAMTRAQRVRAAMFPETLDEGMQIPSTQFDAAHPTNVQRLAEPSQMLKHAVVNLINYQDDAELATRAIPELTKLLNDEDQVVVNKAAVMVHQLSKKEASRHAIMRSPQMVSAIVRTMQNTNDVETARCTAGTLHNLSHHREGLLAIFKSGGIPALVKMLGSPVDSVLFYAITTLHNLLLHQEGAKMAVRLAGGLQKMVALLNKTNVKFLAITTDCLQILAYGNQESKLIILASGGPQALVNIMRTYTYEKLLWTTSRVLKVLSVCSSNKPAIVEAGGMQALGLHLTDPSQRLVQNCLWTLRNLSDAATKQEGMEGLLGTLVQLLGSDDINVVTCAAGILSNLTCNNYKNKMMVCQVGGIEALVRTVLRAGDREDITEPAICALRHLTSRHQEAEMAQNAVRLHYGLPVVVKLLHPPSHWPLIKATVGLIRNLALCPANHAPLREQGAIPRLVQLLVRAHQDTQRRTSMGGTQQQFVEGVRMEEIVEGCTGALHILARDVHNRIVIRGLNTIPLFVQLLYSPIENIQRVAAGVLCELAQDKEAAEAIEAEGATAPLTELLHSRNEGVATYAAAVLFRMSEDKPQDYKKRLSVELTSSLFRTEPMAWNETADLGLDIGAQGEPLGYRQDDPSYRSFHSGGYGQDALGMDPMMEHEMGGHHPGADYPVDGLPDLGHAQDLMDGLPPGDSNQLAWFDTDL

[1] = molecular target: T2, B-cat-Halo (beta-catenin HaloTag NanoBRET construct expressed in HEK293 cells) (UniProt P35222 1-781); assay: cell-based or functional assay
T2 sequence (looked up): T1 sequence (looked up)

[2] = molecular target: T3, beta-catenin, full-length (Uniprot ID P35222) (Homo sapiens (Human), UniProt P35222 2-781); assay: fluorescence polarization competition, displacement of 5FAM-TCF4 10-53 from full-length beta-catenin
T3 construct: tags are not described; also called bCat; B-Catenin
T3 sequence: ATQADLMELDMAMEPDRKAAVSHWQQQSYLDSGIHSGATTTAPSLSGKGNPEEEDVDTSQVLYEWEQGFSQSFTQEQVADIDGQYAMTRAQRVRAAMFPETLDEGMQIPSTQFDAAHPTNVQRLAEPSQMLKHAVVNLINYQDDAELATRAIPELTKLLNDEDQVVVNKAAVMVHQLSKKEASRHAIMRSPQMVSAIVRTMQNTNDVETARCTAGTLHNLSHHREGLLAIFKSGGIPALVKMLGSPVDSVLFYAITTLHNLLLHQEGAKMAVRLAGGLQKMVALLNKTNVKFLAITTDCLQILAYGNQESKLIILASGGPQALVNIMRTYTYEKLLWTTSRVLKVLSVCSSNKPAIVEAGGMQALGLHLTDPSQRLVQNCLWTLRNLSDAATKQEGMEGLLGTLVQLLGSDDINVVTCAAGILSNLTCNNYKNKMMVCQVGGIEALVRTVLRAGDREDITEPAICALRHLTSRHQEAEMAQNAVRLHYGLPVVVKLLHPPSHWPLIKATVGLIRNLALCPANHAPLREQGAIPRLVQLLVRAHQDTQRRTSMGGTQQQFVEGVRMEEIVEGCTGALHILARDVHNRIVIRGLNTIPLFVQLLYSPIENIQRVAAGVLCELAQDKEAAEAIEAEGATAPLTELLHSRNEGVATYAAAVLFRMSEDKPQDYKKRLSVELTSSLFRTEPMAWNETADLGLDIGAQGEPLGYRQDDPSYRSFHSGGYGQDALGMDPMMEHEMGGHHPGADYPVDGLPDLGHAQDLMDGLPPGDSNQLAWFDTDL
Protocol: The plate was incubated protected from light for 60 minutes at 20° C. prior to read. Reads were performed on a CLARIOstar plate reader (BMG Labtech) in duplicate, and data were fitted to a 1:1 binding model with hill slope using an in-house script. All provided concentrations are final concentrations.

NanoBRET Abs IC50 (Bcat-Halo): 1.7 µM
Binder: Ac-[αAllylPro]D[tBuAla][B5(4)]D[Phe(3-COOH)][(EtSO2Ppz)GlnR]AFL[PyrS2″][2F3MeF][Bta]A-NH2 (staple 1-4, 4-11) [I-2321]

NanoBRET Abs IC50 [1]: 13.8 µM
B1: I-1910 (peptide)
peptide: Ac-[αAllylPro]D[tBuAla][B5(12)]D[Phe(3-COOH)]HAFL[PyrS2(4)][3Thi][Bta]F-NH2
modifications: staple 1-4, 4-11; not fully specified; printed as Ac-PL3-Asp-Npg-B5-Asp-3COOHF-His-Ala-Phe-Leu-PyrS2-3Thi-BztA-Phe-NH2; reading uncertain

NanoBRET Abs IC50 [1]: > 20 µM
B2: I-1911 (peptide)
peptide: Ac-[αAllylPro]D[tBuAla][B5(12)]D[Phe(3-COOH)]KAFL[PyrS2(4)][3Thi][Bta]F-NH2
modifications: staple 1-4, 4-11; not fully specified; printed as Ac-PL3-Asp-Npg-B5-Asp-3COOHF-Lys-Ala-Phe-Leu-PyrS2-3Thi-BztA-Phe-NH2; reading uncertain

IC50 [2]: 5 µM
Binder: Ac-[αAllylPro]DA[B5(17)]DDAA[Phe(4-F)]V[S8]FWQ-NH2 (staple 1-4, 4-11, Stapled (stitched) peptide) [I-266: Ac-PL3-Asp-Ala-B5-Asp-Asp-Ala-Ala-4FF-Val-S8-Phe-Trp-Gln-NH2]

IC50 [2]: 3.29 µM
B3: I-290: Ac-PL3-Asp-Ala-B5-Asp-Asp-Ala-Ala-Phe-Val-S8-Phe-Trp-NH2 (peptide)
peptide: XDAXDDAAFVXFW
modifications: not fully specified; N-terminal Ac; PL3 at 1, B5 at 4, S8 at 11 (olefin-metathesis staples 1-4 and 4-11); C-terminal amide
notes: Stapled (stitched) peptide

NanoBRET Abs IC50 [1]: 15.5 µM
B4: I-1906 (peptide)
peptide: Ac-[αAllylPro]D[tBuAla][B5(12)]D[Phe(3-COOH)]AAFL[PyrS2(4)][Phe(2-Cl)][Bta]S-Prolinol
modifications: staple 1-4, 4-11; not fully specified; printed as Ac-PL3-Asp-Npg-B5-Asp-3COOHF-Ala-Ala-Phe-Leu-PyrS2-2C1F-BztA-Ser-Prool; reading uncertain

IC50 [2]: 5 µM
B5: I-289: Ac-PL3-Asp-Ala-B5-Asp-Asp-Ala-Ala-Phe-Val-S8-Phe-Trp-NH2 (peptide)
peptide: XDAXDDAAFVXFW
modifications: not fully specified; N-terminal Ac; PL3 at 1, B5 at 4, S8 at 11 (olefin-metathesis staples 1-4 and 4-11); C-terminal amide
notes: Stapled (stitched) peptide

NanoBRET Abs IC50 [1]: 11.5 µM
B6: I-1912 (peptide)
peptide: Ac-[αAllylPro]D[tBuAla][B5(5)]D[Phe(3-COOH)]QAFL[PyrS2(4)][3Thi][Bta]F-NH2
modifications: staple 1-4, 4-11; not fully specified; printed as Ac-PL3-Asp-Npg-B5-Asp-3COOHF-Gln-Ala-Phe-Leu-PyrS2-3Thi-BztA-Phe-NH2; reading uncertain

IC50 [2]: 5 µM
Binder: Ac-[αAllylPro]DA[B5(17)]D[2Pal]AAFV[S8]FWQ-NH2 (staple 1-4, 4-11, Stapled (stitched) peptide) [I-270: Ac-PL3-Asp-Ala-B5-Asp-2PyrA-Ala-Ala-Phe-Val-S8-Phe-Trp-Gln-NH2]

NanoBRET Abs IC50 (Bcat-Halo): 17.7 µM
Binder: Ac-[αAllylPro]D[tBuAla][B5(4)]D[Phe(3-COOH)][(Me2NPrPip)GlnR″]AFL[PyrS2″][2F3MeF][Bta]A-NH2 (staple 1-4, 4-11) [I-2323]

NanoBRET Abs IC50 [1]: > 20 µM
B7: I-1909 (peptide)
peptide: Ac-[αAllylPro]D[tBuAla][B5(12)]D[Phe(3-COOH)][Lys(iPr)]AFL[PyrS2(4)][3Thi][Bta]F-NH2
modifications: staple 1-4, 4-11; not fully specified; printed as Ac-PL3-Asp-Npg-B5-Asp-3COOHF-iPrLys-Ala-Phe-Leu-PyrS2-3Thi-BztA-Phe-NH2; reading uncertain

IC50 [2]: 3.76 µM
Binder: Ac-[αAllylPro]DA[B5(4)]DDAA[Phe(3-F)]V[S8]FWQ-NH2 (staple 1-4, 4-11; also: staple isomer composition, later HPLC peak, Stapled (stitched) peptide) [I-265: Ac-PL3-Asp-Ala-B5-Asp-Asp-Ala-Ala-3FF-Val-S8-Phe-Trp-Gln-NH2]

IC50 [2]: 5 µM
B8: I-285: Ac-PL3-Asp-Ala-B5-Asp-Asp-Ala-Ala-Phe-Val-S8-His-Trp-Gln-NH2 (peptide)
peptide: XDAXDDAAFVXHWQ
modifications: not fully specified; N-terminal Ac; PL3 at 1, B5 at 4, S8 at 11 (olefin-metathesis staples 1-4 and 4-11); C-terminal amide
notes: Stapled (stitched) peptide
